Literature values in US11884941B2, “Non-canonical lipoproteins with programmable assembly and architecture and method of making non-canonical lipoproteins” (SYRACUSE UNIVERSITY, priority 2020, dated 2024).
Where two headings read alike, the source gives them in different places.

Legend:
[1] = molecular target: T1, yeast NMT (Saccharomyces cerevisiae, UniProt P14743)
T1 sequence (P14743 1-455): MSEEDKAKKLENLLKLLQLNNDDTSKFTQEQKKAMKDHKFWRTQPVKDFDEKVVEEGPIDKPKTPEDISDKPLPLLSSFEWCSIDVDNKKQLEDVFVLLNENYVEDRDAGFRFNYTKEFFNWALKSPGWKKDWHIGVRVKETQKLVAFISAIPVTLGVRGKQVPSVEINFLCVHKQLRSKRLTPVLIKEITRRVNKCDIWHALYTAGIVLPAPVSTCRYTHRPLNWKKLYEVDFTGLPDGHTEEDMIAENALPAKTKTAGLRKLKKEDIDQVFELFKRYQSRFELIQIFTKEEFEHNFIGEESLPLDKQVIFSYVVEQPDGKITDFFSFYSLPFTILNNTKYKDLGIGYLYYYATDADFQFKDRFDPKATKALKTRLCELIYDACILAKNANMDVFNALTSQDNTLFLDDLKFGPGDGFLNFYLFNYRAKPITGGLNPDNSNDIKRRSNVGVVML

[2] = test system: Pseudomonas acyl-CoA synthetase; details: in vitro

GLYASKLFSNL (substrate for transferase)
Km ([1]; read-out: Km of recognition sequence for yeast NMT): ~0.08 µM

GARASVLS [octapeptide NMT substrate derived from Pr55gag polypeptide precursor of human immunodeficiency virus I (Devadas et al.)]
fold reduction of peptide affinity toward NMT:ADA-CoA complex compared to natural substrate (M-CoA) [1]: 7 fold
Km ([1]; NMT with ADA-CoA bound, read-out: Km for the peptide, NMT:ADA-CoA): 66 µM
Km ([1]; NMT with Myr-CoA bound, read-out: Km for the peptide, NMT:Myr-CoA complex): 9 µM

[N-]=[N+]=NCCCCCCCCCCCC(=O)O [ADA, 12-azidododecanoic acid]
Vm relative to Vm (M) ([1]; transfer to N-terminal glycine in ternary complex): 1.5 ×Vm (M)

CC(C)(COP(=O)(O)OP(=O)(O)OCC1OC(n2cnc3c(N)ncnc32)C(O)C1OP(=O)(O)O)C(O)C(=O)NCCC(=O)NCCSC(=O)CCCCCCCCCCCN=[N+]=[N-] (stereo not drawn) [ADA-CoA]
amount of acyl-CoA produced compared to M-CoA [2]: 1.5-2 times
